Data published in the supplement of paper PMC12458215.
± gives the uncertainty stated by the source.

Tested on: HEK293T
Assay: plasma membrane surface immunostaining intensity (anti-HA, deep receptor scanning) (arbitrary fluorescence units); higher = higher plasma membrane expression

Sequence	plasma membrane surface immunostaining intensity (GPCR class: A (Olfactory))	plasma membrane surface immunostaining intensity (GPCR class: A)	also measured
MVLASGNSSSHPVSFILLGIPGLESFQLWIAFPFCATYAVAVVGNITLLHVIRIDHTLHEPMYLFLAMLAITDLVLSSSTQPKMLAIFWFHAHEIQYHACLIQVFFIHAFSSVESGVLMAMALDCYVAICFPLRHSSILTPSVVIKLGTIVMLRGLLWVSPFCFMVSRMPFCQHQAIPQSYCEHMAVLKLVCADTSISRGNGLFVAFSVAGFDMIVIGMSYVMILRAVLQLPSGEARLKAFSTRSSHICVILALYIPALFSFLTYRFGHDVPRVVHILFANLYLLIPPMLNPIIYGVRTKQIGDRVIQGCCGNIP [OR52R1]	173 ± 48		
MVLEVSDHQVLNDAEVAALLENFSSSYDYGENESDSCCTSPPCPQDFSLNFDRAFLPALYSLLFLLGLLGNGAVAAVLLSRRTALSSTDTFLLHLAVADTLLVLTLPLWAVDAAVQWVFGSGLCKVAGALFNINFYAGALLLACISFDRYLNIVHATQLYRRGPPARVTLTCLAVWGLCLLFALPDFIFLSAHHDERLNATHCQYNFPQVGRTALRVLQLVAGFLLPLLVMAYCYAHILAVLLVSRGQRRLRAMRLVVVVVVAFALCWTPYHLVVLVDILMDLGALARNCGRESRVDVAKSVTSGLGYMHCCLNPLLYAFVGVKFRERMWMLLLRLGCPNQRGLQRQPSSSRRDSSWSETSEASYSGL [CXCR3]		530 ± 49	
MVLNVYCCFFQISDIQTMKINQTILKEFILVGFSVYPHVQTFLFVVFFCLYLLTLAGNLIIMGLTWVDRSLHTPMYLFLSALSFSETCYTLTIVPKMLEDLLAKDRSISVTGCSLQMCFFLGLGGTNCIILTLMGYDRFLAICNPLRYPLLMTNIVCGQLVASACTAGFFISLTETALIFRDSFCRPNLVKHFFCHMLAVIRLSCIDSNHTEFIITLISVSGLLGTLLLIILTDVFIISTVLRIPSAEGKQKAFTTCASHLTVVIIHFGFASIVYLKPEASGDDTLIAVPYTVITPFLSPIIFSLRNKDMKNAFRRMMGNTVALKK [OR10X1]	233 ± 96		
MVNLRNAVHSFLVHLIGLLVWQSDISVSPVAAIVTDIFNTSDGGRFKFPDGVQNWPALSIVIIIIMTIGGNILVIMAVSMEKKLHNATNYFLMSLAIADMLVGLLVMPLSLLAILYDYVWPLPRYLCPVWISLDVLFSTASIMHLCAISLDRYVAIRNPIEHSRFNSRTKAIMKIAIVWAISIGVSVPIPVIGLRDEEKVFVNNTTCVLNDPNFVLIGSFVAFFIPLTIMVITYCLTIYVLRRQALMLLHGHTEEPPGLSLDFLKCCKRNTAEEENSANPNQDQNARRRKKKERRPRGTMQAINNERKASKVLGIVFFVFLIMWCPFFITNILSVLCEKSCNQKLMEKLLNVFVWIGYVCSGINPLVYTLFNKIYRRAFSNYLRCNYKVEKKPPVRQIPRVAATALSGRELNVNIYRHTNEPVIEKASDNEPGIEMQVENLELPVNPSSVVSERISSV [HTR2C]		974 ± 180	
MVNNFSQAEAVELCYKNVNESCIKTPYSPGPRSILYAVLGFGAVLAAFGNLLVMIAILHFKQLHTPTNFLIASLACADFLVGVTVMPFSTVRSVESCWYFGDSYCKFHTCFDTSFCFASLFHLCCISVDRYIAVTDPLTYPTKFTVSVSGICIVLSWFFSVTYSFSIFYTGANEEGIEELVVALTCVGGCQAPLNQNWVLLCFLLFFIPNVAMVFIYSKIFLVAKHQARKIESTASQAQSSSESYKERVAKRERKAAKTLGIAMAAFLVSWLPYLVDAVIDAYMNFITPPYVYEILVWCVYYNSAMNPLIYAFFYQWFGKAIKLIVSGKVLRTDSSTTNLFSEEVETD [TAAR9]		136 ± 34	
MVNQSSTPGFLLLGFSEHPGLERTLFVVVLTSYLLTLVGNTLIILLSALDPKLHSPMYFFLSNLSFLDLCFTTSCVPQMLVNLWGPKKTISFLDCSVQIFIFLSLGTTECILLTVMAFDRYVAVCQPLHYATIIHPRLCWQLASVAWVIGLVESVVQTPSTLHLPFCPDRQVDDFVCEVPALIRLSCEDTSYNEIQVAVASVFILVVPLSLILVSYGAITWAVLRINSAKGRRKAFGTCSSHLTVVTLFYSSVIAVYLQPKNPYAQERGKFFGLFYAVGTPSLNPLIYTLRNKEVTRAFRRLLGKEMGLTQS [OR2H2]	145 ± 10		
MVPHLLLLCLLPLVRATEPHEGRADEQSAEAALAVPNASHFFSWNNYTFSDWQNFVGRRRYGAESQNPTVKALLIVAYSFIIVFSLFGNVLVCHVIFKNQRMHSATSLFIVNLAVADIMITLLNTPFTLVRFVNSTWIFGKGMCHVSRFAQYCSLHVSALTLTAIAVDRHQVIMHPLKPRISITKGVIYIAVIWTMATFFSLPHAICQKLFTFKYSEDIVRSLCLPDFPEPADLFWKYLDLATFILLYILPLLIISVAYARVAKKLWLCNMIGDVTTEQYFALRRKKKKTIKMLMLVVVLFALCWFPLNCYVLLLSSKVIRTNNALYFAFHWFAMSSTCYNPFIYCWLNENFRIELKALLSMCQRPPKPQEDRPPSPVPSFRVAWTEKNDGQRAPLANNLLPTSQLQSGKTDLSSVEPIVTMS [GPR83]		490 ± 39	
MVWENQTFNSIFILLGIFNHSPTHTFLFSLVLGIFSLALMENISMVLLIYIEKQLHTPMYFLLSQLSLMDLMLICTTLPKMIFSYLSGKKSISLAGCGTQIFFYVSLLGAECFLLAVMAYDRYVAICHPLQYTILMNPKLCVFMTVASWTLGSLDGIIVLAAVLSFSYCSSLEIHHFFCDVAALLPLSCTETSAFERLLVICCVVMLIFPVSVIILSYSHVLRAVIHMGSGESRRKAFTTCSSHLSVVGLYYGAAMFMYMRPASKHTPDQDKMVSAFYTILTPMLNPLIYSLRNKEVFRALQKVLKKRKLI [OR2M4]	172 ± 36		
MWGRLLLWPLVLGFSLSGGTQTPSVYDESGSTGGGDDSTPSILPAPRGYPGQVCANDSDTLELPDSSRALLLGWVPTRLVPALYGLVLVVGLPANGLALWVLATQAPRLPSTMLLMNLAAADLLLALALPPRIAYHLRGQRWPFGEAACRLATAALYGHMYGSVLLLAAVSLDRYLALVHPLRARALRGRRLALGLCMAAWLMAAALALPLTLQRQTFRLARSDRVLCHDALPLDAQASHWQPAFTCLALLGCFLPLLAMLLCYGATLHTLAASGRRYGHALRLTAVVLASAVAFFVPSNLLLLLHYSDPSPSAWGNLYGAYVPSLALSTLNSCVDPFIYYYVSAEFRDKVRAGLFQRSPGDTVASKASAEGGSRGMGTHSSLLQ [F2RL3]		894 ± 240	
MWNATPSEEPGFNLTLADLDWDASPGNDSLGDELLQLFPAPLLAGVTATCVALFVVGIAGNLLTMLVVSRFRELRTTTNLYLSSMAFSDLLIFLCMPLDLVRLWQYRPWNFGDLLCKLFQFVSESCTYATVLTITALSVERYFAICFPLRAKVVVTKGRVKLVIFVIWAVAFCSAGPIFVLVGVEHENGTDPWDTNECRPTEFAVRSGLLTVMVWVSSIFFFLPVFCLTVLYSLIGRKLWRRRRGDAVVGASLRDQNHKQTVKMLAVVVFAFILCWLPFHVGRYLFSKSFEPGSLEIAQISQYCNLVSFVLFYLSAAINPILYNIMSKKYRVAVFRLLGFEPFSQRKLSTLKDESSRAWTESSINT [GHSR]		1480 ± 520	
MWPNGSSLGPCFRPTNITLEERRLIASPWFAASFCVVGLASNLLALSVLAGARQGGSHTRSSFLTFLCGLVLTDFLGLLVTGTIVVSQHAALFEWHAVDPGCRLCRFMGVVMIFFGLSPLLLGAAMASERYLGITRPFSRPAVASQRRAWATVGLVWAAALALGLLPLLGVGRYTVQYPGSWCFLTLGAESGDVAFGLLFSMLGGLSVGLSFLLNTVSVATLCHVYHGQEAAQQRPRDSEVEMMAQLLGIMVVASVCWLPLLVFIAQTVLRNPPAMSPAGQLSRTTEKELLIYLRVATWNQILDPWVYILFRRAVLRRLQPRLSTRPRSLSLQPQLTQRSGLQ [TBXA2R]		6469 ± 48	
MWQEYYFLNVFFPLLKVCCLTINSHVVILLPWECYHLIWKILPYIGTTVGSMEEYNTSSTDFTFMGLFNRKETSGLIFAIISIIFFTALMANGVMIFLIQTDLRLHTPMYFLLSHLSLIDMMYISTIVPKMLVNYLLDQRTISFVGCTAQHFLYLTLVGAEFFLLGLMAYDRYVAICNPLRYPVLMSRRVCWMIIAGSWFGGSLDGFLLTPITMSFPFCNSREINHFFCEAPAVLKLACADTALYETVMYVCCVLMLLIPFSVVLASYARILTTVQCMSSVEGRKKAFATCSSHMTVVSLFYGAAMYTYMLPHSYHKPAQDKVLSVFYTILTPMLNPLIYSLRNKDVTGALKRALGRFKGPQRVSGGVF [OR2T1]	451 ± 170		
MWQKNQTSLADFILEGLFDDSLTHLFLFSLTMVVFLIAVSGNTLTILLICIDPQLHTPMYFLLSQLSLMDLMHVSTIILKMATNYLSGKKSISFVGCATQHFLYLCLGGAECFLLAVMSYDRYVAICHPLRYAVLMNKKVGLMMAVMSWLGASVNSLIHMAILMHFPFCGPRKVYHFYCEFPAVVKLVCGDITVYETTVYISSILLLLPIFLISTSYVFILQSVIQMRSSGSKRNAFATCGSHLTVVSLWFGACIFSYMRPRSQCTLLQNKVGSVFYSIITPTLNSLIYTLRNKDVAKALRRVLRRDVITQCIQRLQLWLPRV [OR2AE1]	159 ± 49		
MYKDCIESTGDYFLLCDAEGPWGIILESLAILGIVVTILLLLAFLFLMRKIQDCSQWNVLPTQLLFLLSVLGLFGLAFAFIIELNQQTAPVRYFLFGVLFALCFSCLLAHASNLVKLVRGCVSFSWTTILCIAIGCSLLQIIIATEYVTLIMTRGMMFVNMTPCQLNVDFVVLLVYVLFLMALTFFVSKATFCGPCENWKQHGRLIFITVLFSIIIWVVWISMLLRGNPQFQRQPQWDDPVVCIALVTNAWVFLLLYIVPELCILYRSCRQECPLQGNACPVTAYQHSFQVENQELSRARDSDGAEEDVALTSYGTPIQPQTVDPTQECFIPQAKLSPQQDAGGV [GPRC5D]			plasma membrane surface immunostaining intensity (GPCR class: C): 6410 ± 68
